Results: patent US6605426B1, “Compounds, methods of screening, and in vitro and in vivo uses involving anti-apoptotic genes and anti-apoptotic gene products” (priority 1998, dated 2003)

B1: pUL37Smyc: pUL37S fused at its C-terminus with a c-myc-epitope tag; constitutively expressed in HeLa/UL37x1#3 cells (protein)
chain: MSPVYVNLLGSVGLLAFWYFSYRWIQRKRLEDPLPPWLRKKKACALTRRSRHRLRRQHGVIDGENSETERSVDLVAALLAEAGEESVTEDTEREDTEEEREDEEEENEARTPEVNPIDAEGLSGLAREACEALKKALRRHRFLWQRRQRARMLQHNGPQQSHQ
B2: pUL36AD169-early: pUL36 of an early (pre-1982) passage of HCMV strain AD169; Cys131 (protein)
chain: MDDLRDTLMAYGCIAIRAGDFNGLNDFLEQECGTRLHVAWPERCFIQLRSRSALGPFVGKMGTVCSQGAYVCCQEYLHPFGFVEGPGFMRYQLIVLIGQRGGIYCYDDLRDCVYELAPTMKDFLRNGFRHCDHFHTMRDYQRPMVQYDDYWNAVMLYRGDVESLSAEVTKRGYASYTIDDPFDECPDTHFAFWTHNTEVMKFKETSFSVVRAGGSIQTMELMIRTVPRITCYHQLLGALGHEVPERKEFLVRQYVLVDTFGVVYGYDPAMDAVYRLAEDVVMFTCVMGKKGHRNHRFSGRREAIVRLEKTPTCQHPKKTPDPMIMFDEDDDDELSLPRNVMTHEEAESRLYDAITENLMHCVKLVTTDSPLATHLWPQELQALCDSPALSLCTDDVEGVRQKLRARTGSLHHFELSYRFHDEDPETYMGFLWDIPSCDRCVRRRRFKVCDVGRRHIIPGAANGMPPLTPPHVYMNN

Experiments:
HeLa cells [1] = experiment: Apoptosis resistance of HeLa clones stably expressing pUL37Smyc; assay type: cell-based, human
Text: In a preferred embodiment, HeLa clones continuously (as opposed to transiently) express the version of pUL37s tagged with the C-terminal myc-peptide (amino acids 408-421 within the carboxy terminal domain of human c-Myc) generated by stable transfection with either an expression plasmid containing UL37S alone, or in a mixture with an expression plasmid coding for puromycin-N-acetyl-transferase such as pPUR (Clontech, Palo Alto, Calif.). Following the transfection, drug-resistant clones are selected in medium containing G418 (0.7 mg/mL) or in medium containing puromycin (1 μg/ml), and then the clones are screened for the expression of pUL36-myc-tagged and pUL37S-myc-tagged polypeptides, respectively, by Western analysis with 9E10 anti-Myc antibody (Santa Cruz Biotechnology, Inc., Santa Cruz, Calif.). In using this approach, the present inventors isolated four clones that expressed pUL37S-myc (designated as HeLa/UL37S). These clones were then used to conduct further studies reported in Example 9. Also, four G418-resistant clones of HeLa cells stably transfected with pcDNA3/myc (empty vector, control) were isolated by similar procedures, two with G418 (HeLa/G418) and two with puromycin (HeLa/puro), and used as a negative control in the Western blot analysis and experiments studying the anti-apoptotic activity of the clones.
Three transfected G418-resistant HeLa clones were isolated that stably express pUL37S myc (designated HeLa/UL37×1myc #3, #8, and #N1), as detected by Western blot analysis with the 9E10 anti-myc antibody (Evan et al., 1985, which is incorporated herein by reference) (FIG. 8A). In parallel, three HeLa clones were isolated following stable transfections with the pcDNA3 vector alone (designated HeLa/pcDNA3-A, -B, and —C). […] While virtually all of the HeLa/pcDNA3-A control cells died following an overnight exposure to anti-Fas antibody+CHX or TNF-α+CHX, only a small fraction of the pUL37Smyc-expressing cells underwent apoptosis after an overnight exposure to these agents FIG. 8B). Moreover, most of the pUL37Smyc-expressing cells continued to survive for more than 3 days of culturing in the presence of either anti-Fas antibody+CHX or TNF-α+CHX.
The present inventors tested whether pUL37S can inhibit apoptosis triggered by other stimuli. […] Thus, pUL37S is a broadly acting inhibitor of apoptosis that can inhibit or diminish cell death induced by a variety of cytotoxic agents.

HeLa/UL37x1#3 cells = experiment: Dominant-negative assay: pUL37S deletion mutants in HeLa/UL37x1#3 cells, β-galactosidase ELISA; assay type: cell-based, human; conditions: HeLa/UL37S #3 cells transfected with the empty vector; anti-Fas plus cyclohexamide 24 h
Experimental: 24 h after co-transfection, the cells were either exposed for an additional 24 h to anti-Fas antibody, in the presence of cyclohexamide (FIGS. 11A and 11B, closed bars) or left untreated (FIGS. 11A and 11B, open bars). The surviving cells were than quantified by determining the β-galactosidase levels with a β-galactosidase ELISA (Boehringer Mannheim). […] The control HeLa/pcDNA3-A cells were sensitive to Fas-mediated apoptosis, and this sensitivity was not affected by the expression of the deletion mutants.
Apoptosis was induced in the cell line HeLa/UL37x1#3 (HeLa cells transfected with UL37x1, clone No. 3), that constitutively expresses pUL37Smyc and is resistant to apoptosis, through the addition of anti-Fas antibodies and cyclohexamide to the culture medium. To identify dominant-negative mutants, HeLa/UL37x1#3 cells were co-transfected with the lacZ (encoding β-galactosidase) indicator plasmid vector, together with either an expression vector for a pUL37S deletion mutant or the empty plasmid vector, pcDNA3. […]
One day after the transfection, cells were treated with anti-Fas antibody plus cyclohexamide for 24 h. Cell survival was then assessed by measuring spectrophotometrically the level of β-galactosidase expression, as described in Example 1. […]

HeLa cells [2] = experiment: Transient transfection apoptosis assay in HeLa cells (anti-Fas antibody+CHX or TNF-α+CHX); assay type: cell-based, human; conditions: transiently transfected HeLa cells; anti-Fas antibody+CHX 24 h; surviving cells scored
Experimental: Tumor necrosis factor receptor 1 (TNF-R1)-mediated apoptosis was induced by exposure of HeLa and MRC-5 cells to tumor necrosis factor-α (TNF-α) (Sigma, 10-60 ng/mL)+CHX (10-30 μg/mL). Fas-mediated apoptosis was induced by exposure of cells to an anti-Fas antibody (Coulter, 7C11 antibody at 0.2-4 μg/mL)+CHX (10-30 μg/mL). The degree of cell death was determined by the visual scoring of surviving cells, in representative fields, under a phase microscope. A similar degree of cell death occurred in fibroblasts when examined 5 to 28 h after the start of exposure, or a similar degree of cell death occurred in HeLa cells when examined 9-28 h after the start of exposure. Further, a similar degree of cell death for a given reagent was produced when any concentration within the range indicated above was used.
The degree of cell death in cells transfected with an indicator plasmid expressing E. coli β-galactosidase was determined by either a β-galactosidase ELISA (Boehringer Mannheim), in accordance with the manufacturer's recommendations, or by visually scoring, under a microscope, positive blue cells, expressing β-galactosidase, after staining them with X-gal.
HeLa cells were transiently co-transfected with an expression plasmid vector, pME18S, carrying a polynucleotide sequence encoding IE1 or IE2 (FIG. 5, “IE1” and “IE2,” respectively), and a vector carrying the β-galactosidase gene (pCMVβ, Clontech). As a positive control, HeLa cells were transiently co-transfected with pCMVβ and a vector carrying a polynucleotide sequence encoding an anti-apoptotic polypeptide, such as the adenovirus E1B 19K or baculovirus p35.
Expression of IE1 (approx. 72 kDa) and IE2 (approx. 86 kDa) in the transfected HeLa cells was confirmed by Western blot analysis, by immunofluorescence visually examined under a fluorescence microscope, and by transactivation activity which led to an elevation of the vector-CMV-promoter-driven β-galactosidase expression which was increased 2- to 5-fold, as measured by a β-galactosidase ELISA (data not shown). Apoptosis was induced by incubating the transfected cells for 24 h with either TNF-α+CHX, or anti-Fas antibody+CHX. The surviving cells were stained with X-gal, a chromogenic substrate of β-galactosidase, and then the blue-stained cells were scored (FIG. 5).
To identify HCMV genes that can suppress apoptosis induced by Fas-ligation, the present inventors established a transient transfection assay in HeLa cells. The HeLa cells can be transfected at much higher efficiency than MRC-5 cells and are similar in their sensitivity towards anti-Fas antibody and TNF-α treatment. Enhanced survival of HeLa cells following anti-Fas antibody+CHX treatment was detected by elevated β-galactosidase (β-gal) levels produced by a transfected β-gal marker plasmid.
The deletion mutants were transiently expressed in HeLa cells, cultured in DMEM supplemented with 10% fetal bovine serum, and assayed for their ability to block Fas- or TNF-R1-mediated apoptosis. Transfections and apoptosis assays were performed as previously described (Goldmacher et al., 1999). Briefly, cells were transiently transfected with the expression vectors (purified with a Qiagen plasmid purification kit) using SuperFect transfection reagent (Qiagen) in accordance with the manufacturer's protocol. After 24 hours, cells were exposed to anti-Fas 7C11 antibody (Coulter, 0.5 μg/ml)+cyclohexamide (Sigma, 10 μg/ml) for 24 hours.
A genomic DNA library was cloned into pZeoSV2(+) plasmid (Invitrogen). Ten cosmids, pCM1007, pCM1015, pCM1017, pCM1029, pCM1035, pCM1039, pCM1040, pCM1052, pCM1058, and pCM1072, covering the AD169 genome (Fleckenstein et al., 1982, which is incorporated herein by reference), and pON2601 Toledo cosmid (Cha et al., 1996, which is incorporated herein by reference) containing unique HCMV sequences, were mixed in equal amounts and partially digested with Sau3AI (New England Biolabs, Beverly, Mass.). […]

[3] = biological target: T1, full-length pro-caspase 8 (Homo sapiens, UniProt Q14790); experiment: Co-precipitation in co-transfected 293T cells (anti-HA IP, anti-myc blot); assay type: binding; conditions: HA-tagged pro-caspase 8
T1 construct: HA-tagged full-length pro-caspase 8 (lanes 5 and 6); expressed in transfected cells; host or cells: 293T cells co-transfected with pUL36AD169-earlymyc or pUL36AD169-ATCCmyc
Text: (§1) Pro-caspase 8 was detected on the pUL36-containing beads (lane 4), but not on the control beads (lane 2), while the lysates from all these cells contained similar amounts of pro-caspase 8 (compare lanes 1 and 3). […] To test this hypothesis, 293T cells were co-transfected with pUL36AD169-earlymyc and with a truncated pro-caspase 8, containing only its HA-tagged pro-domain region. pUL36AD169-earlymyc is expressed by a fusion gene comprising a UL36 ORF isolated from a pre-1982 passage of CMVAD169 and the carboxy-linked myc epitope tag. The cells were lysed as above, and anti-HA antibody was used to immunoprecipitate the caspase 8 pro-domain. Anti-myc antibodies were then used to probe a Western blot for the inclusion of pUL36 with the immunoprecipitated material. Control cells were transfected with pUL36AD169-earlymyc with either the empty vector (negative control), or with HA-tagged pro-caspase 8 (positive control). Additional cells were co-transfected with the non-functional mutant pUL36AD169-ATCCmyc with either the HA-pro-domain, the empty vector or HA-pro-caspase 8.

pro-domain of caspase 8 = biological target: T2, pro-domain of caspase 8 (Homo sapiens, UniProt Q14790); experiment: as above; assay type: binding; conditions: HA-tagged pro-domain
T2 construct: a truncated pro-caspase 8, containing only its HA-tagged pro-domain region; expressed in transfected cells; host or cells: 293T cells co-transfected with pUL36AD169-earlymyc or pUL36AD169-ATCCmyc
Text: as §1

T1 sequence (Q14790 whole entry): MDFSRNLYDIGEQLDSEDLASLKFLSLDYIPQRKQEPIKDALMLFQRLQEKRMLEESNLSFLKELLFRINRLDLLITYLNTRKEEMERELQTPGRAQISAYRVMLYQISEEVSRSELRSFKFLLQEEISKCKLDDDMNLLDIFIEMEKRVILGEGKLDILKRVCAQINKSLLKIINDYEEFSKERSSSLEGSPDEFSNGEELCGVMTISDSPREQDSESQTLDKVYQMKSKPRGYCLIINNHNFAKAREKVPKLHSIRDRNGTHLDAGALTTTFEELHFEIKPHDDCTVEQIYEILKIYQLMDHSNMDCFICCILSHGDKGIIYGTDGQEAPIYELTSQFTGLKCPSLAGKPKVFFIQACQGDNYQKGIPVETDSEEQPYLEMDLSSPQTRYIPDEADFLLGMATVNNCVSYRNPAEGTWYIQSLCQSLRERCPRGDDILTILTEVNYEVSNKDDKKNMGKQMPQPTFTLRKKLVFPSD
T2 sequence (Q14790 1-216 limits assumed): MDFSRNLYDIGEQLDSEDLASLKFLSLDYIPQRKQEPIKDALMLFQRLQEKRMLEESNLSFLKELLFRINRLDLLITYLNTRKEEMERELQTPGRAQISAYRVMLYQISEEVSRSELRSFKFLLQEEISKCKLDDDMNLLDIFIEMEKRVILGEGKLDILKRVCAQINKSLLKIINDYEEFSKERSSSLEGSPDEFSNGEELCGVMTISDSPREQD

| Molecule | resistance to apoptosis induced by doxorubicin (HeLa cells [1]; doxorubicin 1, 3, and 6 μM, 24 h, trypan blue exclusion) | duration of survival in culture with apoptotic stimulus (HeLa cells [1]; in the presence of either anti-Fas antibody+CHX or TNF-α+CHX) | resistance to TNF-R1-mediated apoptosis (HeLa cells [1]; stable HeLa clones, TNF-α+CHX) | resistance to Fas-mediated apoptosis (HeLa cells [1]; stable HeLa clones, anti-Fas antibody+CHX) | β-gal signal compared to untreated cells (HeLa/UL37x1#3 cells) | anti-apoptotic activity: protection against Fas-mediated apoptosis (HeLa cells [2]) | co-precipitation with full-length pro-caspase 8 [3] | co-precipitation with the pro-domain of caspase 8 (pro-domain of caspase 8) |
| --- | --- | --- | --- | --- | --- | --- | --- | --- |
| B1 | substantially more resistant | more than 3 days | resistant | resistant | about 40% |  |  |  |
| B2 |  |  |  |  |  | effective death suppressors | co-precipitated | co-precipitated |
